# Measured values reported in FireProtDB (doi:10.1021/bi002653y).
# “And” between values parts separate entries of the source, which are not always exact repeats. Equal values may be shown once.
# Conditions: Desulfovibrio desulfuricans (strain ATCC 27774 / DSM 6949 / MB), pH 7, 20 °C, GdnHCl, sodium phosphate 5 mM, reversible: yes, whole UniProt chain shown
protein,measurement,setting,value
"Desulfoferrodoxin wild type, P22076 (protein) MPKHLEVYKCTHCGNIVEVLHGGGAELVCCGEPMKHMVEGSTDGAMEKHVPVIEKVDGGYLIKVGSVPHPMEEKHWIEWIELLADGRSYTKFLKPGDAPEAFFAIDASKVTAREYCNLHGHWKAEN",denaturant midpoint (higher = more stable),"CD, transition: 3",4.9 M and 5.1 M
same,unfolding free energy,"CD, transition: 3",11.3 kcal/mol and 12 kcal/mol
same,denaturant midpoint (higher = more stable),Fluorescence,2.3 M
same,unfolding free energy,Fluorescence,11.3 kcal/mol
same,denaturant midpoint (higher = more stable),"Fluorescence, transition: 3",1.7 M and 2.2 M and 2.9 M
same,unfolding free energy,"Fluorescence, transition: 3",10.6 kcal/mol and 10.9 kcal/mol
